{"source": "paper PMC9482650", "about": "“Quantitative fragmentomics allow affinity mapping of interactomes” (Nature Communications, 2022)", "binders": {"B1": {"name": "CSPG4, Q6UVK1 (peptide)", "chain": "PALKNGQYWV"}}, "data": [{"target": "Inadl_4, Q8NI35", "sequence (Q8NI35 547-651)": "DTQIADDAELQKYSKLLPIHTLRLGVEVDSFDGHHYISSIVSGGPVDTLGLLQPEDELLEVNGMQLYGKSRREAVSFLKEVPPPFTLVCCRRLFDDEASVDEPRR", "experiment": "holdup assay", "parameters": "key: below the threshold = too weak to quantify, mostly under pKd 3.1 to 4", "settings": "plain residues with an end cap or a label only (N-terminal biotin on a linker: ado-ado)", "values": [{"binder": "B1", "pKd": "below the threshold"}]}, {"target": "NHERF4_2, Q86UT5", "sequence (Q86UT5 220-308)": "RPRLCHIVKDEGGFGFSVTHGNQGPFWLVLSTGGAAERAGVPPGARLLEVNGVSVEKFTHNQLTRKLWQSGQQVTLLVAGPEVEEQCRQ", "experiment": "holdup assay", "parameters": "key: below the threshold = too weak to quantify, mostly under pKd 3.1 to 4", "settings": "plain residues with an end cap or a label only (N-terminal biotin on a linker: ado-ado)", "values": [{"binder": "B1", "pKd": "below the threshold"}]}, {"target": "T1, LIN7C, Q9NUP9", "T1 sequence (Q9NUP9 88-185, limits assumed, looked up)": "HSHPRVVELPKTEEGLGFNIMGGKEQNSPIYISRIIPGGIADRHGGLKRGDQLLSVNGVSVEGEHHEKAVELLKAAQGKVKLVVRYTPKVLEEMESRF", "experiment": "holdup assay", "parameters": "key: below the threshold = too weak to quantify, mostly under pKd 3.1 to 4", "settings": "plain residues with an end cap or a label only (N-terminal biotin on a linker: ado-ado)", "values": [{"binder": "B1", "pKd": 4.15}]}, {"target": "MAGI3_2, Q5TCQ9", "sequence (Q5TCQ9 398-503)": "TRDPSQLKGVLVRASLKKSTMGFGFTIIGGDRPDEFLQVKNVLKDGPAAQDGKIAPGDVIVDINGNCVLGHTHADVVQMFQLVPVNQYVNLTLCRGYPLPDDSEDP", "experiment": "holdup assay", "parameters": "key: below the threshold = too weak to quantify, mostly under pKd 3.1 to 4", "settings": "plain residues with an end cap or a label only (N-terminal biotin on a linker: ado-ado)", "values": [{"binder": "B1", "pKd": 4.03}]}, {"target": "T2, ARHGEF11, O15085", "T2 sequence (O15085 42-136, limits assumed, looked up)": "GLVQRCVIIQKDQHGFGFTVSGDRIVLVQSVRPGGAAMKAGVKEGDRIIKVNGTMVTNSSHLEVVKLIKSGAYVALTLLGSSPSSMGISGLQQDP", "experiment": "holdup assay", "parameters": "key: below the threshold = too weak to quantify, mostly under pKd 3.1 to 4", "settings": "plain residues with an end cap or a label only (N-terminal biotin on a linker: ado-ado)", "values": [{"binder": "B1", "pKd": 3.8}]}, {"target": "MAGI2_3, Q86UL8", "sequence (Q86UL8 600-682)": "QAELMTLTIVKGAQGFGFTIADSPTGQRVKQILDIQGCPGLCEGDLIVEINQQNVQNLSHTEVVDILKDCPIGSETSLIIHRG", "experiment": "holdup assay", "parameters": "key: below the threshold = too weak to quantify, mostly under pKd 3.1 to 4", "settings": "plain residues with an end cap or a label only (N-terminal biotin on a linker: ado-ado)", "values": [{"binder": "B1", "pKd": "below the threshold"}]}, {"target": "PTPN3, P26045", "sequence (P26045 505-587)": "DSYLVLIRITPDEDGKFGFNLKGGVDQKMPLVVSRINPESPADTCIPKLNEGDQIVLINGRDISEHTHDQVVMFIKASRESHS", "experiment": "holdup assay", "parameters": "key: below the threshold = too weak to quantify, mostly under pKd 3.1 to 4", "settings": "plain residues with an end cap or a label only (N-terminal biotin on a linker: ado-ado)", "values": [{"binder": "B1", "pKd": 4.1}]}, {"target": "Inadl_8, Q8NI35", "sequence (Q8NI35 1425-1530)": "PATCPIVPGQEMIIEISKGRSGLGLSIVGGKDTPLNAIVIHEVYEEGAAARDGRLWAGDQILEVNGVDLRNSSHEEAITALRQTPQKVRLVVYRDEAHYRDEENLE", "experiment": "holdup assay", "parameters": "key: below the threshold = too weak to quantify, mostly under pKd 3.1 to 4", "settings": "plain residues with an end cap or a label only (N-terminal biotin on a linker: ado-ado)", "values": [{"binder": "B1", "pKd": 3.5}]}, {"target": "SCRIB_2, Q14160", "sequence (Q14160 857-960)": "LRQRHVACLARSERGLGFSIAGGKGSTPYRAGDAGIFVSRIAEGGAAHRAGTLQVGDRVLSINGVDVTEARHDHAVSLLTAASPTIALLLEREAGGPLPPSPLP", "experiment": "holdup assay", "parameters": "key: below the threshold = too weak to quantify, mostly under pKd 3.1 to 4", "settings": "plain residues with an end cap or a label only (N-terminal biotin on a linker: ado-ado)", "values": [{"binder": "B1", "pKd": "below the threshold"}]}, {"target": "FRMPD2_1, Q68DX3", "sequence (Q68DX3 770-861)": "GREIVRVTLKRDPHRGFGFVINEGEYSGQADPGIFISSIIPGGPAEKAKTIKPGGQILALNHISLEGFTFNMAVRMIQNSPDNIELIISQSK", "experiment": "holdup assay", "parameters": "key: below the threshold = too weak to quantify, mostly under pKd 3.1 to 4", "settings": "plain residues with an end cap or a label only (N-terminal biotin on a linker: ado-ado)", "values": [{"binder": "B1", "pKd": 3.82}]}, {"target": "T3, SHANK1, Q9Y566", "T3 sequence (Q9Y566 658-767, limits assumed, looked up)": "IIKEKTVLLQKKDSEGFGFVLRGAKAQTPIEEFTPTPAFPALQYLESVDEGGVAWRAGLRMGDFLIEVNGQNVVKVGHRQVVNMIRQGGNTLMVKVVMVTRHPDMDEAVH", "experiment": "holdup assay", "parameters": "key: below the threshold = too weak to quantify, mostly under pKd 3.1 to 4", "settings": "plain residues with an end cap or a label only (N-terminal biotin on a linker: ado-ado)", "values": [{"binder": "B1", "pKd": "below the threshold"}]}, {"target": "T4, TJP3_3, O95049", "T4 sequence (O95049 375-456, limits assumed, looked up)": "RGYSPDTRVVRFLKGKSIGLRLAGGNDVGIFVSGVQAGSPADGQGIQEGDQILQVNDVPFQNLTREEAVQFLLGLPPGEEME", "experiment": "holdup assay", "parameters": "key: below the threshold = too weak to quantify, mostly under pKd 3.1 to 4", "settings": "plain residues with an end cap or a label only (N-terminal biotin on a linker: ado-ado)", "values": [{"binder": "B1", "pKd": 4.81}]}, {"target": "T5, LRRC7, Q96NW7", "T5 sequence (Q96NW7 1440-1537, limits assumed, looked up)": "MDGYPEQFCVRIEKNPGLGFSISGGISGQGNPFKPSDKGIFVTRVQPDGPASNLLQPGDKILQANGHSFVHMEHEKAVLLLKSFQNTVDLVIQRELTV", "experiment": "holdup assay", "parameters": "key: below the threshold = too weak to quantify, mostly under pKd 3.1 to 4", "settings": "plain residues with an end cap or a label only (N-terminal biotin on a linker: ado-ado)", "values": [{"binder": "B1", "pKd": 3.7}]}, {"target": "PARD3_3, Q8TEW0", "sequence (Q8TEW0 582-685)": "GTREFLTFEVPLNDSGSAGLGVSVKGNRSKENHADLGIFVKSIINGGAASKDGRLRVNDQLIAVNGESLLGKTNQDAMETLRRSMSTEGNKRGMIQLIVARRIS", "experiment": "holdup assay", "parameters": "key: below the threshold = too weak to quantify, mostly under pKd 3.1 to 4", "settings": "plain residues with an end cap or a label only (N-terminal biotin on a linker: ado-ado)", "values": [{"binder": "B1", "pKd": 3.96}]}, {"target": "T6, APBA1_2, Q02410", "T6 sequence (Q02410 742-832, limits assumed, looked up)": "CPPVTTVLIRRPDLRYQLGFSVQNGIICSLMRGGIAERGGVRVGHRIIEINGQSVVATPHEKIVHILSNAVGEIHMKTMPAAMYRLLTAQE", "experiment": "holdup assay", "parameters": "key: below the threshold = too weak to quantify, mostly under pKd 3.1 to 4", "settings": "plain residues with an end cap or a label only (N-terminal biotin on a linker: ado-ado)", "values": [{"binder": "B1", "pKd": 4.67}]}, {"target": "T7, ARHGAP21, Q5T5U3", "T7 sequence (Q5T5U3 45-169, limits assumed, looked up)": "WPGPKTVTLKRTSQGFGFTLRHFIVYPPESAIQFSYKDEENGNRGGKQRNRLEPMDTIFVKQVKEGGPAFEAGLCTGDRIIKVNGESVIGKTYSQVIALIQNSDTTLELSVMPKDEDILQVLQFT", "experiment": "holdup assay", "parameters": "key: below the threshold = too weak to quantify, mostly under pKd 3.1 to 4", "settings": "plain residues with an end cap or a label only (N-terminal biotin on a linker: ado-ado)", "values": [{"binder": "B1", "pKd": "below the threshold"}]}, {"target": "GRID2IP_1, A4D2P6", "sequence (A4D2P6 1-87)": "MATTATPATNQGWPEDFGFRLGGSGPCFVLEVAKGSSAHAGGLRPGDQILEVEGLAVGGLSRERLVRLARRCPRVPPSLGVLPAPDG", "experiment": "holdup assay", "parameters": "key: below the threshold = too weak to quantify, mostly under pKd 3.1 to 4", "settings": "plain residues with an end cap or a label only (N-terminal biotin on a linker: ado-ado)", "values": [{"binder": "B1", "pKd": "below the threshold"}]}, {"target": "FRMPD2_2, Q68DX3", "sequence (Q68DX3 944-1038)": "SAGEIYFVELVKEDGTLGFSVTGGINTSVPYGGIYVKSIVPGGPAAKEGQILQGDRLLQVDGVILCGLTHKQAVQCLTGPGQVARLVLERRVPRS", "experiment": "holdup assay", "parameters": "key: below the threshold = too weak to quantify, mostly under pKd 3.1 to 4", "settings": "plain residues with an end cap or a label only (N-terminal biotin on a linker: ado-ado)", "values": [{"binder": "B1", "pKd": "below the threshold"}]}, {"target": "T8, RAPGEF6, Q8TEU7", "T8 sequence (Q8TEU7 525-625, limits assumed, looked up)": "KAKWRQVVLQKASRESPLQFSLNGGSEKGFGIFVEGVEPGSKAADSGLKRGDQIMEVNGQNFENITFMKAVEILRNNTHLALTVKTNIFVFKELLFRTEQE", "experiment": "holdup assay", "parameters": "key: below the threshold = too weak to quantify, mostly under pKd 3.1 to 4", "settings": "plain residues with an end cap or a label only (N-terminal biotin on a linker: ado-ado)", "values": [{"binder": "B1", "pKd": "below the threshold"}]}, {"target": "LDB3, O75112", "sequence (O75112 1-94)": "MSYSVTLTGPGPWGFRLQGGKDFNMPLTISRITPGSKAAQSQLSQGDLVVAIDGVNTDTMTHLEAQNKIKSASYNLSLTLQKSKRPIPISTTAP", "experiment": "holdup assay", "parameters": "key: below the threshold = too weak to quantify, mostly under pKd 3.1 to 4", "settings": "plain residues with an end cap or a label only (N-terminal biotin on a linker: ado-ado)", "values": [{"binder": "B1", "pKd": "below the threshold"}]}, {"target": "T9, LNX2_3, Q8N448", "T9 sequence (Q8N448 463-564, limits assumed, looked up)": "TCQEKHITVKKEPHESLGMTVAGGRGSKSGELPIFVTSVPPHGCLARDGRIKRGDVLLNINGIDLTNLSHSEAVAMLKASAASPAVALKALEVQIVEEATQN", "experiment": "holdup assay", "parameters": "key: below the threshold = too weak to quantify, mostly under pKd 3.1 to 4", "settings": "plain residues with an end cap or a label only (N-terminal biotin on a linker: ado-ado)", "values": [{"binder": "B1", "pKd": "below the threshold"}]}, {"target": "DLG2_3, Q15700", "experiment": "holdup assay", "parameters": "key: below the threshold = too weak to quantify, mostly under pKd 3.1 to 4", "settings": "plain residues with an end cap or a label only (N-terminal biotin on a linker: ado-ado)", "values": [{"binder": "B1", "pKd": "below the threshold"}]}, {"target": "MAGI2_4, Q86UL8", "sequence (Q86UL8 772-865)": "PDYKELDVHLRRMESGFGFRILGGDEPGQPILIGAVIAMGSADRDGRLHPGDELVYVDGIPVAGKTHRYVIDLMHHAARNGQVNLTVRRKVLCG", "experiment": "holdup assay", "parameters": "key: below the threshold = too weak to quantify, mostly under pKd 3.1 to 4", "settings": "plain residues with an end cap or a label only (N-terminal biotin on a linker: ado-ado)", "values": [{"binder": "B1", "pKd": 3.82}]}, {"target": "Inadl_2, Q8NI35", "sequence (Q8NI35 238-335)": "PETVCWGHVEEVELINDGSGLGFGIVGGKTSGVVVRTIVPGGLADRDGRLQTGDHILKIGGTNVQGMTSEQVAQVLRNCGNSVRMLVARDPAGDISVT", "experiment": "holdup assay", "parameters": "key: below the threshold = too weak to quantify, mostly under pKd 3.1 to 4", "settings": "plain residues with an end cap or a label only (N-terminal biotin on a linker: ado-ado)", "values": [{"binder": "B1", "pKd": 4.38}]}, {"target": "PDLIM1, O00151", "sequence (O00151 1-87)": "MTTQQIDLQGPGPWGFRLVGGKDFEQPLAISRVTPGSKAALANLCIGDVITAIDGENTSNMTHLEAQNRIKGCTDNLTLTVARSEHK", "experiment": "holdup assay", "parameters": "key: below the threshold = too weak to quantify, mostly under pKd 3.1 to 4", "settings": "plain residues with an end cap or a label only (N-terminal biotin on a linker: ado-ado)", "values": [{"binder": "B1", "pKd": "below the threshold"}]}, {"target": "T10, APBA1_1, Q02410", "T10 sequence (Q02410 651-752, limits assumed, looked up)": "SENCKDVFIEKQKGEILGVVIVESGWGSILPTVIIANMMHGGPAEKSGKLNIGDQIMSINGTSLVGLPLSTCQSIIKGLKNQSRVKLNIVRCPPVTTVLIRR", "experiment": "holdup assay", "parameters": "key: below the threshold = too weak to quantify, mostly under pKd 3.1 to 4", "settings": "plain residues with an end cap or a label only (N-terminal biotin on a linker: ado-ado)", "values": [{"binder": "B1", "pKd": "below the threshold"}]}, {"target": "NHERF4_1, Q86UT5-2", "sequence (Q86UT5 other isoform, or with tags, fused parts or gaps)": "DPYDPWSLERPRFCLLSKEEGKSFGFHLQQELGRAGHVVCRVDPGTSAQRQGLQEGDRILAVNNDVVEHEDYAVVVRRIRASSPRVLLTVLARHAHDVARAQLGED", "experiment": "holdup assay", "parameters": "key: below the threshold = too weak to quantify, mostly under pKd 3.1 to 4", "settings": "plain residues with an end cap or a label only (N-terminal biotin on a linker: ado-ado)", "values": [{"binder": "B1", "pKd": 3.5}]}, {"target": "DLG4_1, P78352", "sequence (P78352 62-152)": "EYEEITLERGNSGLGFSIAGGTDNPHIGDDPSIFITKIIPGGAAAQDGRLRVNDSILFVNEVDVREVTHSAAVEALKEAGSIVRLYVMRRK", "experiment": "holdup assay", "parameters": "key: below the threshold = too weak to quantify, mostly under pKd 3.1 to 4", "settings": "plain residues with an end cap or a label only (N-terminal biotin on a linker: ado-ado)", "values": [{"binder": "B1", "pKd": "below the threshold"}]}]}
